These results are taken from PMC4089486, “Structural and biochemical analyses of alanine racemase from the multidrug-resistant Clostridium difficile strain 630” (Acta Crystallographica Section D: Biological Crystallography, 2014).

Data set [1] has as its system C[C@@H](N)C(=O)O. Nature of the data set: chiral HPLC of alanine enantiomers, initial rates. Type of data set: biochemical, Clostridioides difficile. The settings on record: D-Ala to L-Ala, 50 mM sodium borate pH 8.5, WT preparation partly cleaved at position 271.
Text: (§1) chiral HPLC of alanine enantiomers, initial rates on CdAlr (C. difficile alanine racemase; CdAlrWT)
Data set [2] relates to C[C@H](N)C(=O)O. Nature of the data set: chiral HPLC of alanine enantiomers, initial rates. The settings on record: L-Ala to D-Ala, 50 mM sodium borate pH 8.5, WT preparation partly cleaved at position 271. Type of data set: biochemical, Clostridioides difficile.
Text: as §1
Data set [3] has as its target Clostridium difficile strain 630 alanine racemase, recombinant wild type (Clostridium difficile strain 630). Nature of the data set: SEC-MALS.

Consider “CdAlr (C. difficile alanine racemase; CdAlrWT) (Clostridioides difficile 630)”, for which, in data set [1], the Km was determined as 7 mM, the Vmax came to 26.7 µmol/min/mg and the turnover number (kcat) stood at 19.2 s⁻¹. For the same substance, in data set [2], the Km came to 17.6 mM and the kcat amounted to 59.3 s⁻¹.
For “Clostridium difficile strain 630 alanine racemase, recombinant wild type (from UniProt A0AC59G415 1-385) (enzyme)”, the stoichiometry N in data set [3] was found to be 2.

A word on the Km: it is the substrate concentration at which the rate is half of its maximum. One may read the Vmax as the rate approached at saturating substrate. The kcat is the maximal rate divided by the concentration of active sites. By stoichiometry N is commonly meant the number of molecules, sites or subunits per partner or assembly.
